Data reported in US10555963B2, “Klotho protein and related compounds for the treatment and diagnosis of cancer” (TEL HASHOMER MEDICAL RESEARCH INFRASTRUCTURE AND SERVICES …, priority 2007, dated 2020).

What was measured:
[1] = test system: human embryonic kidney (HEK) 293 cells; test: Colony formation assay after transfection with klotho protein expression vector; type: cell-based; conditions: transfected pcDNA3-HA-KL vs empty vector
Method: Two days following transfection with the indicated plasmids, G418 (750 μg/ml) was added to the culture media; and at day 14, the cells were stained using gentian violet. Untransfected cells were treated similarly, and all died within the 2 weeks of culture in the selection media. Quantification of the results was performed using AlphaImager 2000 (Alpha Innotech, CA).
The effect of klotho protein on growth of breast cancer cells was first assessed using colony formation assays. MCF-7, MDA-MB-231 and the non-cancerous human embryonic kidney (HEK) 293 cells were transfected with either a HA-tagged klotho protein expression vector (pcDNA3-HI-A-KL) or an empty vector (pcDNA3). Transfected cells were cultured in media containing G418 for two weeks and stained to determine the number of surviving colonies.

[2] = test system: MCF-7 and MDA-MB-231 clones; test: MTT proliferation assay of clones stably expressing klotho protein; type: cell-based, human; conditions: stable klotho protein-expressing clones vs pcDNA3 controls; 24-72 h
Method: (§1) The medium was aspirated, and the cells were dissolved by dimethyl sulfoxide (DMSO).
In order to assess the long-term effects of klotho protein expression, MCF-7 and MDA-MB-231 clones, which stably expressed either pcDNA3 or pcDNA3-HA-KL, were generated. Proliferation was evaluated by 3-(4,5-dimethylthiazol-2-yl)-2,5-diphenyltetrazolium bromide (MTT) assay after seeding for 24-72 h.

[3] = test system: p53 levels in HEK 293; test: Immunoblot of p53 and PARP after klotho protein over-expression; type: cell-based, human
Method: (§2) For breast cells, cells were harvested and lysed for total protein extraction in RIPA buffer (50 mM Tris-Cl pH 7.4, 150 mM NaCl, 1% NP-40, 0.25% Na-deoxycholate, 1 mM EDTA, 1 mM NaF) together with a protease inhibitor cocktail (Sigma). 50 μg protein extracts were loaded on 10% polyacrylamide gels, separated electrophoretically and blotted from the gel onto nitrocellulose membrane (Schleicher & Schuell Bioscience GmbH, Dassel, D E). The membranes were then immunoblotted with the indicated antibodies.
(§3) In fibroblasts, klotho protein reduces senescence through down-regulation of p53 (de Oliveira, 2006). The effects of klotho protein on p53 levels in MCF-7 breast cancer cells and HEK 293 were therefore analyzed.

[4] = test system: p53 levels in MCF-7 cells; test: as above; type: cell-based, human
Method: as §2, §3

[5] = test system: MCF-7 cells; test: IGF-1-induced MCF-7 proliferation after klotho protein transfection; type: cell-based, human; conditions: HA-KL-transfected cells, 0.5% serum, IGF-1 24-96 hr; control pcDNA3 cells up to 40%
Method: as §1
Klotho protein is known to inhibit activation of the IGF-1 pathway in L6 myoblasts cells and rat hepatoma H4IIE cells (Kurosu et al., 2005). This pathway plays an important role in breast cancer tumorigenesis, and IGF-1 induces MCF-7 cell proliferation (Geier et al., 1995; Yee, 2006). In order to test the ability of klotho protein to modulate IGF-1-induced proliferation and survival, MCF-7 cells were transiently transfected with either pcDNA3 or pcDNA3-HA-KL, and grown in 0.5% serum with either IGF-1 or a control vehicle for 24-96 hr.

[6] = test system: IGF-1 pathway in MCF-7 cells; test: IGF-1 pathway activation (Western blotting) after klotho protein over-expression; type: cell-based, human; conditions: IGF-1 12.5 nM, 15 min
Method: as §2
MDA-MB-231 cells, which express lower levels of these receptors, were also examined. HEK 293 cells, whose growth is not dependent on the IGF-1 pathway (El-Shewy et al., 2007) and is not inhibited by klotho protein, served as control.
In order to elucidate klotho protein activity as an inhibitor of […] activation, MCF-7 cells were transfected with either pcDNA3-HA-KL or an empty vector, starved for 48 hours, treated with IGF-1 for the indicated times and doses, and analyzed using Western blotting for the level of expression and phosphorylation of IGF-1R.
In further experiments, MCF-7, MDA-MB-231 or HEK-293 cells were transfected with either pcDNA3-HA-KL or empty vector and treated with IGF-1 (12.5 nM, 15 min).

[7] = test system: insulin pathway in MCF-7 cells; test: Insulin pathway activation after klotho protein over-expression; type: cell-based, human; conditions: insulin stimulation
[8] = test system: insulin pathway in HEK 293 cells; test: as above; type: cell-based, human; conditions: insulin stimulation
[9] = test system: Colo357, MiaPaCa2, and Panc1; test: Colony formation assay of pancreatic carcinoma cell lines transfected with klotho protein vector; type: cell-based, human; conditions: pcDNA3-HA-KL vs empty vector; G418 two weeks
Method: Two days following transfection with the indicated plasmids, G418 (900 μg/ml for Panc1, 1000 μg/ml for MiaPaCa2 and 750 μg/ml for Colo357, HEK-293 and BON1) was added to the culture media. At day 14, cells were stained using crystal violet (Sigma-Aldrich) and quantitated as described (Wolf et al., 2008).
For the colony formation assay, pancreatic carcinoma cell lines Colo357, MiaPaCa2, and Panc1 were transfected with either a HA-tagged klotho protein expression vector (pcDNA3-HA-KL) or an empty vector (pcDNA3). Transfected cells were cultured in media containing G418 for two weeks. Colonies were stained with crystal violet and photographed.

[10] = test system: Panc1 cells; test: In vivo Panc1 tumors in athymic nude mice treated with soluble klotho protein; conditions: 200 ng/day, 500 ng/day daily intra-peritoneal, up to 4 weeks
Method: Panc1 cells were harvested, washed twice with sterile PBS, counted and resuspended in Matrigel (BD Biosciences). Six-week-old female athymic nude mice were injected subcutaneously in both flanks with cells at a density of 0.5×10^6 cells/100 μl. The mice were treated with daily intra-peritoneal injections of either soluble klotho protein (prepared as described above): 200 ng/day, 500 ng/day, or vehicle control (saline). Five mice were used in each group. Tumor size was measured weekly with a linear caliper for up to 4 weeks, and tumor volume was estimated using the equation V=(a×b^2)×0.5236, where “a” is the larger dimension and “b” the perpendicular diameter.

[11] = test system: IGF-1 pathway in Panc1 cells; test: IGF-1 pathway in Panc1 cells after klotho protein over-expression (immunoblot); type: cell-based, human; conditions: IGF-1 12.5 nM, 15 min
Method: For pancreatic cells, protein extraction and Western blotting was performed as described (Wolf et al., 2008).
Panc1 cells were transfected with either klotho protein-HA expression plasmid (KL-HA) or a control vector (pcDNA3). After 24 hrs, cells were serum starved for 48 hr and treated with IGF-1 (12.5 nM, 15 min). Following treatment, cells were harvested and proteins were resolved and immunoblotted using antibodies directed against phosphorylated (p) and total (t) IGF-1R, p- and t-AKT, p- and t-ERK1/2.

B1: klotho protein: full length mouse Klotho (SEQ ID NO. 3) over-expressed in cells from HA-tagged expression vector pcDNA3-HA-KL (protein)
chain: MLARAPPRRPPRLVLLRLLLLHLLLLALRARCLSAEPGQGAQTWARFARAPAPEAAGLLHDTFPDGFLWAVGSAAYQTEGGWRQHGKGASIWDTFTHHSGAAPSDSPIVVAPSGAPSPPLSSTGDVASDSYNNVYRDTEGLRELGVTHYRFSISWARVLPNGTAGTPNREGLRYYRRLLERLRELGVQPVVTLYHWDLPQRLQDTYGGWANRALADHFRDYAELCFRHFGGQVKYWITIDNPYVVAWHGYATGRLAPGVRGSSRLGYLVAHNLLLAHAKVWHLYNTSFRPTQGGRVSIALSSHWINPRRMTDYNIRECQKSLDFVLGWFAKPIFIDGDYPESMKNNLSSLLPDFTESEKRLIRGTADFFALSFGPTLSFQLLDPNMKFRQLESPNLRQLLSWIDLEYNHPPIFIVENGWFVSGTTKRDDAKYMYYLKKFIMETLKAIRLDGVDVIGYTAWSLMDGFEWHRGYSIRRGLFYVDFLSQDKELLPKSSALFYQKLIEDNGFPPLPENQPLEGTFPCDFAWGVVDNYVQVDTTLSQFTDPNVYLWDVHHSKRLIKVDGVVAKKRKPYCVDFSAIRPQITLLREMRVTHFRFSLDWALILPLGNQTQVNHTVLHFYRCMISELVHANITPVVALWQPAAPHQGLPHALAKHGAWENPHTALAFADYANLCFKELGHWVNLWITMNEPNTRNMTYRAGHHLLRAHALAWHLYDDKFRAAQKGKISIALQADWIEPACPFSQNDKEVAERVLEFDIGWLAEPIFGSGDYPRVMRDWLNQKNNFLLPYFTEDEKKLVRGSFDFLAVSHYTTILVDWEKEDPMKYNDYLEVQEMTDITWLNSPSQVAVVPWGLRKVLNWLRFKYGDLPMYVTANGIDDDPHAEQDSLRIYYIKNYVNEALKAYVLDDINLCGYFAYSLSDRSAPKSGFYRYAANQFEPKPSMKHYRRIIDSNGFLGSGTLGRFCPEEYTVCTECGFFQTRKSLLVFISFLVFTFIISLALIFHYSKKGQRSYK
modifications: HA tag
effect on HEK 293 growth (colony assay) [1]: no effect
proliferation slower than controls (MTT assay) [2]: up to 6 fold
expression or cleavage of PARP [3]: No changes
p53 levels [3]: reduce
expression or cleavage of PARP [4]: No changes
p53 levels [4]: increase
increase of cell proliferation by IGF-1 [5]: 25%
phosphorylation of IGF-1R, IRS-1, AKT1, GSK3β, ERK-1 and -2 [6]: reduced phosphorylation
activation of the insulin pathway [7]: inhibited
activation of the insulin pathway [8]: not
number and size of surviving colonies [9]: significantly reduced
tumor growth (tumor size) [10]: significant dose-response arrest of tumor growth
phosphorylation of IGF-1R, AKT1 and ERK1/2 [11]: reduced phosphorylation
